{"source": "paper PMC4755828", "about": "(Nature chemical biology, 2016)", "key": {"[1]": {"experiment": "Intracellular concentration by LC-MS/MS", "assay_type": "in vitro ADME", "settings": "human, PC3 cells"}, "PC3 cells [2]": {"system": "PC3 cells", "experiment": "Intracellular concentration by LC-MS/MS", "assay_type": "in vitro ADME"}, "PC3 cells [3]": {"system": "PC3 cells", "experiment": "CellTiter-Glo cell viability assay", "assay_type": "cell-based", "settings": "up to 100 μM, 48 hours"}, "HEK293T cells": {"system": "HEK293T cells", "experiment": "CellTiter-Glo cell viability assay", "assay_type": "cell-based", "settings": "up to 100 μM, 48 hours"}, "Mouse pharmacokinetics": {"experiment": "Mouse pharmacokinetics", "assay_type": "in vivo", "settings": "male swiss albino mice"}, "CBX7": {"system": "CBX7", "settings": "cited from earlier work"}, "[4]": {"target": "CBX7 chromodomain (residues 8-62), C-terminal His-tag (UniProt O95931)", "sequence (O95931 8-62)": "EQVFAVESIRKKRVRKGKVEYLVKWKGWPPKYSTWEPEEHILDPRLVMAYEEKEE", "experiment": "ITC"}, "[5]": {"target": "CBX2 chromodomain (residues 9-66) (UniProt Q14781)", "sequence (Q14781 9-66)": "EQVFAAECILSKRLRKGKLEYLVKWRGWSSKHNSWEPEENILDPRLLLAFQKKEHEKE", "experiment": "ITC"}, "[6]": {"target": "CBX4 chromodomain (residues 8-65), N-terminal His-tag (UniProt O00257)", "experiment": "ITC"}, "[7]": {"target": "CBX6 chromodomain (residues 8-65) (UniProt O95503)", "sequence (O95503 8-65)": "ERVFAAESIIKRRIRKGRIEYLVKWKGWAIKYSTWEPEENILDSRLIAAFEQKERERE", "experiment": "ITC"}, "[8]": {"target": "CBX8 chromodomain (residues 8-61), N-terminal His-tag (UniProt Q9HC52)", "sequence (Q9HC52 8-61)": "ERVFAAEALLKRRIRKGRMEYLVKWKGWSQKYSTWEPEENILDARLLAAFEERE", "experiment": "ITC"}, "[9]": {"target": "CDY1 chromodomain (residues 1-101) (UniProt Q9Y6F8)", "sequence (Q9Y6F8 1-101)": "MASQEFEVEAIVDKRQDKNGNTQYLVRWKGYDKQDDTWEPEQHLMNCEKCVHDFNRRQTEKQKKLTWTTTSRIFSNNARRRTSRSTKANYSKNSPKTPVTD", "experiment": "ITC"}, "[10]": {"target": "CDYL1b chromodomain (residues 1-78) (UniProt Q9Y232)", "experiment": "ITC"}, "[11]": {"target": "CDYL2 chromodomain (residues 1-75) (UniProt Q8N8U2)", "sequence (Q8N8U2 1-75)": "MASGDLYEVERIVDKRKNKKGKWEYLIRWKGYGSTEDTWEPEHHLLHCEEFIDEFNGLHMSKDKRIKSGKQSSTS", "experiment": "ITC"}, "[12]": {"target": "CBX7 (AlphaScreen construct)", "experiment": "AlphaScreen or HTRF"}}, "note": "pEC50, pIC50, pKd: −log10 of the molar value. Square brackets hold non-standard residues; d marks the D form. Ends that are not written are not given here. Peptide text beside a SMILES is read from it. * marks the point of attachment. Benzoyl(4-tBu) = CC(C)(C)c1ccc(C(=O)*)cc1; Lys(Me3) = C[N+](C)(C)CCCC[C@H](N)C(=O)O; Lys(Et2) = CCN(CC)CCCC[C@H](N)C(=O)O"}
{"molecule": "CCN(CC)CCCC[C@H](NC(=O)[C@H](CC(C)C)NC(=O)[C@H](C)NC(=O)[C@H](Cc1ccccc1)NC(=O)c1ccc(C(C)(C)C)cc1)C(=O)N[C@@H](CO)C(=O)OC", "note": "[UNC3866] ({Benzoyl(4-tBu)}-FAL[Lys(Et2)]S-OMe)", "values": [{"measurement": "pEC50", "setting": "[1]", "result": 6.47}, {"measurement": "intracellular concentration", "setting": "PC3 cells [2]; PC3 cells treated with 30 μM UNC3866 for 24 hrs, LC-MS/MS", "result": "1.4 ± 0.3", "unit": "µM"}, {"measurement": "intracellular concentration as % of the extracellular concentration", "setting": "PC3 cells [2]; PC3 cells, 30 μM UNC3866, 24 hours", "result": "~5", "unit": "%"}, {"measurement": "toxicity in PC3 cells", "setting": "PC3 cells [3]", "result": "no toxic effects"}, {"measurement": "toxicity in HEK293T cells", "setting": "HEK293T cells", "result": "no toxic effects"}, {"measurement": "clearance (in words)", "setting": "Mouse pharmacokinetics", "result": "moderate"}]}
{"molecule": "RGFAL[Lys(Me3)]STHG", "values": [{"measurement": "affinity for CBX7 relative to the corresponding H3K27me3 peptide", "setting": "CBX7", "result": 22, "unit": "fold"}, {"measurement": "pKd", "setting": "CBX7; read-out: CBX7 Kd", "result": 5.30}]}
{"molecule": "UNC3567 (peptide)", "values": [{"measurement": "pKd", "setting": "[4]", "result": 5.17}]}
{"molecule": "UNC3866 (peptide)", "values": [{"measurement": "pKd", "setting": "[5]", "result": 5.74}, {"measurement": "pKd", "setting": "[6]", "result": 7.03}, {"measurement": "pKd", "setting": "[7]", "result": 6.21}, {"measurement": "pKd", "setting": "[4]", "result": 7.01}, {"measurement": "pKd", "setting": "[8]", "result": 5.92}, {"measurement": "pKd", "setting": "[9]", "result": 5.20}, {"measurement": "pKd", "setting": "[10]", "result": 6.04}, {"measurement": "pKd", "setting": "[11]", "result": 6.07}, {"measurement": "pIC50", "setting": "[12]", "result": 7.18}]}
{"molecule": "UNC4195 (peptide)", "values": [{"measurement": "pKd", "setting": "[4]", "result": 6.66}]}
